Measured values taken from paper PMC4856986.

How the values were obtained:
[1] = target: T1, ESRRB (DNA binding domain) (mouse, UniProt Q61539 100-186); assay: EMSA and competition
T1 sequence: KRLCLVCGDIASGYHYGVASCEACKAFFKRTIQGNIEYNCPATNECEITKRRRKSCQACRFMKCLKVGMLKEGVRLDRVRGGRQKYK

OCT6-POU [2] = target: T2, OCT6-POU (mouse, UniProt P21952 245-396); assay: EMSA
T2 sequence: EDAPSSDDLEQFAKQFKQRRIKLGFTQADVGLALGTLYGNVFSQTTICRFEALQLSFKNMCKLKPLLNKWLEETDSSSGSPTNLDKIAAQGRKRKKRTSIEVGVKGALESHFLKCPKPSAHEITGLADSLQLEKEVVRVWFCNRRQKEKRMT

BRN2-POU = target: T3, BRN2-POU (mouse, UniProt P31360 264-415); assay: EMSA
T3 sequence: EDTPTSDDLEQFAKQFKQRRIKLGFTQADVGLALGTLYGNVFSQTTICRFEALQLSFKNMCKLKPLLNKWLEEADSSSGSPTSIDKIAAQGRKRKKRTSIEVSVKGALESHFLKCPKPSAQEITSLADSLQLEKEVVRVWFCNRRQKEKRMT

OCT6-POU [3] = target: T2, OCT6-POU; assay: EMSA competition
PAX9 = PAX9 (mouse, UniProt P47242 4-130); assay: EMSA and competition
SOX18-HMG (79 aa) [4] = target: T4, SOX18-HMG (79 aa) (Mus musculus, UniProt P43680 77-155); assay: X-ray crystal structure
SOX18-HMG (79 aa) [5] = target: T4, SOX18-HMG (79 aa); assay: ITC

T4 sequence (P43680 77-155): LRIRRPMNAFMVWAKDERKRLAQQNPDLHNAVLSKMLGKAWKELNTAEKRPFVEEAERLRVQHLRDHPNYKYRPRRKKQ
Chain of PAX9 (P47242 4-130): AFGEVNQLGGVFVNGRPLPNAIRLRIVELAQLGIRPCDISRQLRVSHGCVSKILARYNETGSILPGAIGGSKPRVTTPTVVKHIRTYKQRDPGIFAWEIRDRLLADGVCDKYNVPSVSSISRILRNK

B1: Esrrb element (Cy5/UL) (dsDNA)
DNA 1: TGGTGACCTTGGCT
DNA 2: AGCCAAGGTCACCA
Q: Does B1 bind [1]?
A: Result: binds

B2: Cy5-Pore (dsDNA)
DNA 1: CACATTTGAAAGGCAAATGGAG
DNA 2: CTCCATTTGCCTTTCAAATGTG
Q: Does B2 bind (OCT6-POU [2])?
A: Result: binds

Q: Does B2 bind (BRN2-POU)?
A: Result: binds

B3: UL-More (dsDNA)
DNA 1: TCCTCATGCATATGCATGAGGA
DNA 2: TCCTCATGCATATGCATGAGGA
Q: Does B3 bind (OCT6-POU [3])?
A: Result: binds

B4: Pax element (Cy5/UL) (dsDNA)
DNA 1: AAGCATTTTCACGCATGAGTGCACAG
DNA 2: CTGTGCACTCATGCGTGAAAATGCTT
Q: Does B4 bind (PAX9)?
A: Result: binds

B5: Prox1 crystal DNA, 16 bp with CG overhangs (dsDNA)
DNA 1: CACTAGCATTGTCTGGG
DNA 2: GCCCAGACAATGCTAGT
Q: Does B5 bind (SOX18-HMG (79 aa) [4])?
A: Result: binds

B6: Prox1 15 bp (NAT decoy when unlabelled) (dsDNA)
DNA 1: CTAGCATTGTCTGGG
DNA 2: CCCAGACAATGCTAG
Q: Which Ka (SOX18-HMG (79 aa) [5]) does the source give for B6 here?
A: The Ka was 2.47e+06 M⁻¹.
